# Experimental data: publication PMC7566563
# Target: Cglo-CDPS-S32A (Candidatus Glomeribacter gigasporarum) (UniProt G2JBB2)
# Test: EMSA
# Settings: 8 mM MgCl2; apparent Kd, 3 experiments; 3'-phenylalanylated; native E. coli modifications (s4U8, D16, D20, psi32, psi39, ms2i6A37, m7G46, acp3U47, T54, psi55); EMSA: 75 nM tRNA, 0.1-15 uM enzyme, 20 min at 4 C in buffer A (10 mM MOPS pH 6.7, 200 mM NaCl, 8 mM MgCl2, 5 mM 2-mercaptoethanol); native 12% gel in 90 mM …
substance,measurement,value
Phe-tRNAPhe,Kd,1600 nM
